# How the values were obtained:
# Assay type in all cases: cell-based
# [1] = system: Cricetulus griseus alpha-(1,6)-fucosyl transferase (FUT8) mRNA; assay: Antibody titer and fucosylation with multi-hairpin amiRNA in the GS 3' UTR driven by different promoters and inhibitory 5' UTRs; conditions: 14 day fed-batch
# From the text: The three-hairpin amiRNA with nucleotide sequence SEQ ID NO: 194 was incorporated into the 3′ UTR of a glutamine synthetase selectable marker on a transposon. The amiRNA sequence was placed to the 3′ of an open reading frame encoding a glutamine synthetase protein with polypeptide sequence SEQ ID NO: 307 and was followed by a human globin polyadenylation sequence. The amiRNA gene was cloned into different transposon vectors in which it was operably linked to different Pol II promoters. Each transposon further comprised genes encoding an antibody with mature light chain polypeptide sequence SEQ ID NO: 286 and mature heavy chain polypeptide sequence SEQ ID NO: 288. […]
# (§1) Transposons were co-transfected with mRNA encoding transposase with polypeptide sequence SEQ ID NO: 472 into a CHO cell line with no functional glutamine synthetase gene. […] Protein was purified from the culture supernatant using protein A affinity chromatography, reduced with dithiothreitol, and analyzed on an Agilent QTOF mass spectrometer. […]
# [2] = system: Cricetulus griseus alpha-(1,6)-fucosyl transferase (FUT8) mRNA; assay: CHO pool with amiRNA as host for transient production of afucosylated antibodies; conditions: 7-day transient culture; amiRNA linked to EF1 promoter; FIG. 5B
# From the text: The multi-hairpin amiRNA with nucleotide sequence SEQ ID NO: 194 comprised three hairpins with guides complementary to the mRNA for Cricetulus griseus alpha-(1,6)-fucosyl transferase (FUT8), as described in Section 6.1.1.1. The multi-hairpin amiRNA sequence was placed to the 3′ of an open reading frame encoding a red fluorescent protein (with nucleotide sequence SEQ ID NO: 279) and followed by a rabbit globin polyadenylation sequence. The multi-hairpin amiRNA gene was cloned into a Bombyx transposon vector in which it was operably linked to an EF1 promoter (with nucleotide sequence SEQ ID NO: 314). […] It further comprised an open reading frame encoding puromycin selectable marker with polypeptide sequence SEQ ID NO: 302. […]
# as §1, with “NO: 502” for “NO: 472”, “line expressing” for “line with”, “no heterologous antibody sequences.” for “no functional glutamine synthetase gene.”
# [3] = system: Cricetulus griseus alpha-(1,6)-fucosyl transferase (FUT8) mRNA; assay: Antibody titer and fucosylation with different numbers of amiRNA hairpins in the 3' UTR of the glutamine synthetase selectable marker
# From the text: One- two- or three-hairpin amiRNAs were incorporated into the 3′ UTR of a glutamine synthetase selectable marker on a transposon. The multi-hairpin amiRNA with nucleotide sequence SEQ ID NO: 194 comprised three hairpins as described in Section 6.1.1.1.
# These amiRNA sequences were placed to the 3′ of an open reading frame encoding a glutamine synthetase protein (with polypeptide sequence SEQ ID NO: 307) and followed by a human globin polyadenylation sequence. The amiRNA genes were cloned into a transposon vector in which they were operably linked to a Pol II promoter. The transposon further comprised genes encoding an antibody with mature light chain polypeptide sequence SEQ ID NO: 286 and mature heavy chain polypeptide sequence SEQ ID NO: 288. The transposon further comprised a left end comprising a 5′-TTAA-3′ target sequence immediately followed by an ITR with nucleotide sequence SEQ ID NO: 423 (which is an embodiment of SEQ ID NO: 421) and additional nucleotide sequence SEQ ID NO: 417 and a right end comprising nucleotide sequence SEQ ID NO: 419 immediately followed by an ITR with nucleotide sequence SEQ ID NO: 424 (which is an embodiment of SEQ ID NO: 422) immediately followed by a 5′-TTAA-3′ target sequence. The transposon was configured so that the multi-hairpin amiRNA, the glutamine synthetase gene and the genes for both antibody chains, as well as all necessary operably linked control elements were transposable by a corresponding transposase.
# Transposons were co-transfected with mRNA encoding transposase with polypeptide sequence SEQ ID NO: 472 into a CHO cell line with no functional glutamine synthetase gene. The pool of transfected cells were grown in the absence of glutamine added to the media until their viability reached 95%. They were then grown in a 14 day fed-batch using Sigma Advanced Fed Batch media. Protein was purified from the culture supernatant using protein A affinity chromatography, reduced with dithiothreitol, and analyzed on an Agilent QTOF mass spectrometer. We integrated the area under the peaks at 50,456 Da (corresponding to the heavy chain modified by G0: the conserved heptasaccharide core composed of 2 N-acetylglucosamine, 3 mannose and 2 other N-acetylglucosamine residues that are β-1,2 linked to α-6 mannose and α-3 mannose, forming two arms) and 50,602 (corresponding to the heavy chain modified by G0F: the conserved heptasaccharide core plus a fucose residue) to calculate the relative proportion of fucosylated and afucosylated antibody.
# Table 5. Inhibition of antibody fucosylation with different numbers of amiRNA hairpins. Transposons were constructed as described in Section 6.1.2.1. The SEQ ID NO of the amiRNA gene including the glutamine synthetase ORF and the globin polyA sequence is given in column A. The Pol II promoter shown in column B was operably linked to the amiRNA whose SEQ ID NO is shown in column C. The amiRNA comprised the number of hairpins shown in column D. Following a 14-day fed batch antibody production run, the culture supernatant contained the concentration of antibody shown in column E. The percentage of antibody that was afucosylated is shown in column F, the percentage that was fucosylated is shown in column G. BDL=below detection limit.
# [4] = system: Cricetulus griseus Neu2 mRNA; assay: Sialylation of an Fc fusion protein from CHO cells with Neu2-targeting amiRNA (capillary isoelectric focusing); conditions: 14 day fed-batch; Fc fusion to a growth factor receptor; FIG. 6B vs reference standard
# From the text: The multi-hairpin amiRNA was cloned into a piggyBac-like transposon to the 3′ of a spacer polynucleotide with nucleotide sequence SEQ ID NO: 280, and operably linked to a PGK promoter with nucleotide sequence SEQ ID NO: 385. The nucleotide sequence of the multi-hairpin amiRNA gene is given as SEQ ID NO: 593. The piggyBac-like transposon further comprised a selectable marker conferring resistance to puromycin with amino acid sequence SEQ ID NO: 302. The piggyBac-like transposon further comprised a target sequence 5′-TTAA-3′ immediately followed by an ITR with nucleotide sequence SEQ ID NO: 427, immediately followed by further transposon end sequences with nucleotide sequence SEQ ID NO: 425. The piggyBac-like transposon further comprised nucleotide sequence SEQ ID NO: 426, immediately followed by a second ITR with nucleotide sequence SEQ ID NO: 428, immediately followed by the target sequence 5′-TTAA-3′. […]
# After the transfected cell pools had recovered to >95% viability, we tested their ability to produce sialylated protein. […] Protein was purified from the culture supernatant using protein A affinity chromatography, reduced with dithiothreitol, and analyzed by capillary isoelectric focusing (cIEF). […]
Molecule,antibody fucosylation [1],antibody titer [1],antibody fucosylation (G0F peak) [2],fucosylation of the antibody ([3]; CMV and EEF2 promoter operably linked to the amiRNA),antibody titer in the culture supernatant ([3]; CMV promoter) [mg/L],antibody titer in the culture supernatant ([3]; EEF2 promoter) [mg/L],"antibody titer ([3]; weaker (PGK) promoter operably linked to glutamine synthetase, amiRNA in 3' UTR) [mg/L]","antibody fucosylation ([3]; weaker (PGK) promoter, amiRNA in GS 3' UTR, natural level around 80-85%)",sialylation of the produced protein (cIEF glycoform peaks) [4]
"SEQ ID NO: 194: three-hairpin amiRNA, guides SEQ ID NOs 23, 24, 25 to Cricetulus griseus FUT8 mRNA, unstructured sequences between hairpins (nucleic acid) ATCTGATCTTCTGAAGAAAATATATTTCTTTTTATTCATAGCTCTTAACTAGTGGTGATAGCAATGTCAGCAGTGCCTGGAAAAACATCCATTCTCATTCGTGAAGCCACAGATGGAATGAGAATAGATGTTTTTCAAAGTAAGGTTGACCATACTCTACTCTAGTTATATTCTTTAGGCACGAATGTGTGTTTAAAAAAAATAAAAACTAGTGGTGATAGCAATGTCAGCAGTGCCTTTAAATTACATAATGTGGCAGTGTGAAGCCACAGATGACTGCCACATCATGTAATTTACAAGTAAGGTTGACCATACTCTACTCTAGAGTTGTGTTTTAATGTATATTAATGTTACTAATGTGTTTACTAGTGGTGATAGCAATGTCAGCAGTGCCTTATTTTACTGTGCATGGGCTTGGTGAAGCCACAGATGCAAGCCCATGAACAGTAAAATCAAGTAAGGTTGACCATACTCTACTCTAGTCAGTTTTATTGATAGTCTTTTCAGTATTATTGATAATCTT",completely suppressed,exceeded 3 g/L,produced only afucosylated antibodies,completely eliminated fucosylation of the antibody,163,443,835,completely prevented,–
"SEQ ID NO: 568: three-hairpin amiRNA, guides SEQ ID NOs 92, 91, 90 complementary to Cricetulus griseus Neu2 mRNA (nucleic acid) ATCTGATCTTCTGAAGAAAATATATTTCTTTTTATTCATAGCTCTTAACTAGTGGTGATAGCAATGTCAGCAGTGCCTATGAAGTCTATGAAGAGTCAGGGTGAAGCCACAGATGCCTGACTCTTAATAGACTTCACAAGTAAGGTTGACCATACTCTACTCTAGAGTTGTGTTTTAATGTATATTAATGTTACTAATGTGTTTACTAGTGGTGATAGCAATGTCAGCAGTGCCTTACAAGTTTACTCACTACCTGGGTGAAGCCACAGATGCCAGGTAGTGCGTAAACTTGTCAAGTAAGGTTGACCATACTCTACTCTAGGTTATTTTTAGTATGATTCTGTAAAAATGAATTAATACTAACTAGTGGTGATAGCAATGTCAGCAGTGCCTTAATTTATTAAGACTCATCCAAGTGAAGCCACAGATGTTGGATGAGTATTAATAAATTCAAGTAAGGTTGACCATACTCTACTCTAGTCAGTTTTATTGATAGTCTTTTCAGTATTATTGATAATCTT",–,–,–,–,–,–,–,–,substantially reduces the removal of sialic acid from proteins produced by CHO cells
